This is an account of results in the DeepSol protein solubility set.

A short description of the data set: soluble on expression in E. coli; label from the status in PepcDB or PDB records.
Regarding “MRKLMTATAALCACAVTVSAGAAWADADVQPAGSVPIPDGPAQTWIVADLDSGQVLAGRDQNVAHPPASTIKVLLALVALDELDLNSTVVADVADTQAECNCVGVKPGRSYTARQLLDGLLLVSGNDAANTLAHMLGGQDVTVAKMNAKAATLGATSTHATTPSGLDGPGGSGASTAHDLVVIFRAAMANPVFAQITAEPSAMFPSDNGEQLIVNQDELLQRYPGAIGGKTGYTNAARKTFVGAAARGGRRLVIAMMYGLVKEGGPTYWDQAATLFDWGFALNPQASVGSL”, the “soluble on expression in E. coli” value is “soluble”.

For “DNTQHYRELFLDDIPLMDVRAPVEYHKGAFPNTVNRPLMNDIERQKVGTSYKQHGQQAAIALGHELVCGALKAERLAAWKAFAEANPNGYLYCFRGGLRSQIVQQWLKQDAGIDYPRVIGGYKALRNFLFETTRAAVDECDFVLVGGLTGCGKTEVIAALDNSLDLEGHANHRGSSFGRRATPQPAQIDFENRLAIDILKKRHRGVGQFVLEDEGRIVGSCSLPLELYQGMQGYPLVWLEDAFEQRVERILRDYVIDLRSEFERVVGVEEGFAAFSAYLQKSLAGIVKRLGGERYQRLAAILVQALEEQGRDGSVDTHRGWIEGLLKEYYDPMYAFQRQSKEDRVEFRGNQAEVIGYLR”, the “soluble on expression in E. coli” value is “not soluble”. “SAEKFDHLEEHLEKFVENIRQLGIIVSDFQPSSQAGLNQKLNFIVTGLQDIDKCRQQLHDITVPLEVFEYIDQGRNPQLYTKECLERALAKNEQVKGKIDTMKKFKSLLIQELSKVFPEDMAKYRSIRGEDHPPS”: the “soluble on expression in E. coli” value is “soluble”. Take “MPVLHNRISNDALKAKMLAESEPRTTISFYKYFHIADPKATRDALYQLFTALNVFGRVYLAHEGINAQISVPASNVETFRAQLYAFDPALEGLRLNIALDDDGKSFWVLRMKVRDRIVADGIDDPHFDASNVGEYLQAAEVNAMLDDPDALFIDMRNHYEYEVGHFENALEIPADTFREQLPKAVEMMQAHKDKKIVMYCTGGIRCEKASAWMKHNGFNKVWHIEGGIIEYARKAREQGLPVRFIGKNFVFDERMGERISDEIIAHCHQCGAPCDSHTNCKNDGCHLLFIQCPVCAEKYKGCCSEICCEESALPPEEQRRRRAGRENGNKIFNKSRGRLNTTLCIPDPTELEHHHHHH”: the “soluble on expression in E. coli” value was “soluble”. For “MAIQGSRTEGLGGYTFDDLAVVMGTYNEEEAIGTVLDDIATVTDGRAEVICVDGSSDRTPEIARDHGATVIEQEPQGYGVAVREAVLTPDRPVVVTTDCDDTYPMERLPDFLAEINDGADVVSGDRLYYGAEQMPAMNKLGNELFALLASVLMGKRVHDTTTGMRAYRREVLQKIVWTENTGLSAELLMRPLMRGYDVRERPIEYDERKGETKLDPFSGGAAIAKSIVRVALEERFRLEHHHHHH” the value was “soluble”.

Turning to “MKKTKVHLISGFLGTGKTTALKSLMAQKDPNEKWVIIVNEFGEIGIDGAVLSDNGIPVAEIAGGCLCCTAGPQMGVTVQKMLRDAKPDRLMIEASGLAHAASVIDELKTKPLDSLLEIGAVFTVVDPRQFINPDYAQQALYKDQIGICDVLVASKTDLCTPEQLAEFHDKAAKLFPPKAKVVEVQNAQLDIQWLDIPVIEKSRYRLKALPDNTMGFQSQGFTFPAGRDFDGEKLTNFFNDLPNMTEGLVRAKGVFQVLGTWVWLNWVDGQWGANQVSWRRDSRFELIAKSFDADLIEQKLKDALELEHHHHHH”, the “soluble on expression in E. coli” value was “not soluble”.

For “MGSDKIHHHHHHMIPSSMKAMVLKGHGGIDQLMYQDVPVPQPREGEVLVQVTATAKNNTDRKAREGLYPTKKGEMTSFQMGGKPTLTFPRIQGADIVGRIVAVGAGVSEQRIGERGLLDFNIYADNRTDINLTPDYYGHGADGGYAEYVALPSDQFHHIPNPDLADAELASMGMCSYQTAYHMLTSANIQAGERVLVTGASGGVGTALIQLCRIIGAIPYALSQKDKADSLLKLGAEAVLDRTDMDSFVDRVKAETGGKPLDAVMDLVGGDMTDRFIDAMIFDMNARSTYPRLSIAGASGGNISEILWTRIYLYQVQIFGVSHGTREEAEQLMRWIRSGDLKPVLHGAFRLSELHRAEEYFVNRGSNYLGKIVIVPDAQWQEHGQPYEVEAD”, the “soluble on expression in E. coli” value was “not soluble”. For “SNAMKAIIKEDVQASLERYADRPVYIHLETTTGSYSAHLNEKNMTVVAYIRNAKVTYHQAKIKGNGPYRVGLKTEEGWIYAEGLTEYTVDEENRLLMAGHLPGGKLAISLQISEKPFTV” the value was “soluble”.

Take “MAHHHHHHMSSLKYIENSINSNIRVDGRTLSTYRTIEINKNILVSADGSSSVMNEENNVICGIKLSLLTPSLDAPDEGVINLQIDCPASVVANRIKKDHLQIMSSIIYDLCLKNNIDRKKMCILPSTFVWGVDINVMVLNAGGGLLDIISMAIYVALKDTVVPVVKPKKKIDESNTFHHTKCADYQVEIVENQKTNFPYENVPICVSIGEINNKYVYDMSKVEEELVENIFVVAVTSSGKCVAFHKLYGISMEIASILNMTENSSRISHHLFEKINEAIAKIETRSVLV”: the “soluble on expression in E. coli” value is given as “not soluble”. On to “MSLNSQGYAVVDFETTGLSPAKGDRAIEIGLVHVAPDGTLEDEHETLIHVDRSVGASWVHHITARELLHAPDFEGIAHELRDLLAGRVFVAHNVSFDSRFLLAEYSRMGASIPVDQSTMLCTMKLSRSLIGRGKLADCCEYFGIANEDAHSALSDAHATAILLGRLLEADPKWPGFQRRLDAAGAAAEQWPTFATLPKKEWLPRGTHLAEGHHHHHH”, for which the “soluble on expression in E. coli” value is on record as “soluble”. With “MNLGLCMADPDFGVYHHSSREESERLRYMARIMFTEAFGKIGIDQDADMNIIDVGCGLGFLTILCADYFKNSRITAIDTFSMGSLKDNSRERLIENLRLADVLDRVTVVEADITKPFNIEDKFDLAVSNLVFHNTGRQRFSVYRNVWNVLKCGSYFINADGFIRKNVASIFVDPFRADMSKISSMYEPEFAMEPKDQKRNAVWRYILVGLRSKCSDV”, the “soluble on expression in E. coli” value was “not soluble”. As for “MKYSKEYDEKTVVKINDVKFGEGFTIIAGPCSIESREQIMKVAEFLAEVGIKVLRGGAFKPRTSPYSFQGYGEKALRWMREAADEYGLVTVTEVMDTRHVELVAKYSDILQIGARNSQNFELLKEVGKVENPVLLKRGMGNTIQELLYSAEYIMAQGNENVILCERGIRTFETATRFTLDISAVPVVKELSHLPIIVDPSHPAGRRSLVIPLAKAAYAIGADGIMVEVHPEPEKALSDSQQQLTFDDFLQLLKELEALGWKG”, the entry is “soluble”. “MATRGPTPDKARMGLPDRWLHCPKTGTLINNLFFPFKTPLCKMYDNQIAERRYQFHPAEVFSHPHLHGKKIGLWIDLTNTDRYYFREEVTEHECIYHKMKMAGRGVSPTQEDTDNFIKLVQEFHKKYPDRVVGVHCTHGFNRTGFLIAAYLFQVEEYGLDAAIGEFAENRQKGIYKQDYIDDLFARYDPTEDDKILAPEKPDWEREMSIGMSTQIDNGRPSTSQQIPATNGNNNQNGNQLSGGGDNSKLFMDGLIRGVKVCEDEGKKSMLQAKIKNLCKYNKQGFPGLQPVSLSRGNINLLEQESYMVSWKADGMRYIIYINDGDVYAFDRDNEVFEIENLDFVTKNGAPLMETLVDTEVIIDKVEINGAMCDQPRMLIYDIMRFNSVNVMKEPFYKRFEIIKTEIIDMRTAAFKTGRLKHENQIMSVRRKDFYDLEATAKLFGPKFVQHVGHEIDGLIFQPKKTKYETGRCDKVLKWKPPSHNSVDFLLKVEKKCKEGMLPEWIGYLFVQNLSDPFGTMKATATLKKYHNKIIECTLLVDNQGRPKEWKFMRERTDKSLPNGLRTAENVVETMVNPVTETYLIEYVNHALRVLKRAAAAHRHHQIHQQQLHEGEPEARRQKL”: the “soluble on expression in E. coli” value is “not soluble”. As for “MSLDKIKAVIFDMDGVLIDAKEWHYEALNKALRLFGFEISRYDHLVTFDGLPTAKKLEMMTVERGLPKSLHQLINDMKQIYTMEYVYMKCKPLFVHQYALSRLKSEGFRLALASNSVRVTIDMMMEKADLNQYLDFSLSNQDVKKSKPDPEIYITAINRLGLSPEECLVVEDNQNGVKAALASGANLLKVETINDVTYSNIINRINEIENNIEGHHHHHH”, the entry is “soluble”; as for “MKQHILVLEDANQRRTIILDEQQYSIGRHSGTSIQIHSRQASRHHATLMRKTNSKTNEECFWIIDGDLEGNKSQNGVFVNGEKRLIHELKNGDLINFGCSINALEHHHHHH”, “not soluble”; as for “MGSDKIHHHHHHMVWRDAEGQVHALEDRCPHRGARLSLGWNLGDRVACWYHGVEVRADGVVADVPAVHECPMTGTKCLKSYPVIEQHGAIFIWFGIDANEQPAPLEFPEQLASEEWSSFLCQADWKVNHQYAIDNVMDPMHGTYLHCTSHSMAEGERTAEMKHRTTENGFVFEKEGQTGVNFDWVEYGSTGASWLRLSIPYRKQFGPGGEFWIVGYATPIDANNTRVFFWRCRKVSGWQRNVWRFLYRNHLEQLHWDVLEQDRIILENLAPNARAREFLYQHDVGLARLRRLMKKEAEKQLKKIAALNASNRIEMQEEAHG”, “not soluble”. As to “MGSDKIHHHHHHMSAQIIQLHTEAPAASVAQSPRKPTKAEKAIIADYVQDLIRRGFCKITDKSAKETRLFNRFDGEPQTLSYLRENFTEWLDDNGKECEFFCERYFIRRLKHIVGRVFKPNAPEFTQSPITGYRYANTYRRYEPTVDSADLPSCFHAYFERMFPAKHQRHIVLQWLAHIFRRPDQRPSWHLMLLSEPGTGKGFLVQNILQPLLHHTSVVASYSRITGKHSAVLVENLVILLDDCKSRSEATQTEMKSFLSEERALVERKYASAGMEDTYARMILASNEEIPLYVDPNERRWYIPDDVVHLVDLRETQANIIQPLADWLDEPGSLCKVYNWFMQYPLDGFNHKSVPESEGLTRLIDKSKGPYRQYIEDYVKDNKVFTYADLVESMTDAKLSKPSDRELGHVLREIGYEATQRRIDGVRLRLCHPVGMSLQDIRAAYSASPTDPNTPF”, the “soluble on expression in E. coli” value is “not soluble”. As for “MGSDKIHHHHHHMVLVVDYGSQYSRLITRRIRENEVYSEVVFPDDKVDLSKVDAVILSGGPRSVYEEDAPKLPEWFQEYKGPVLAICYGMQLIVKELGGEVRRGRGEYGRTLVELSRDPIFEGIPEKVHVWMSHGDEVVRLPEGFHPIAVSETGVIAAATDGKRFWLLQFHPEVHHTEYGDRMISNFLFNVCKLEKNWKIGDLVEEKIRHIKETIGNKKAILALSGGVDSSVAAVLVHRAIGKNLVCVFVDHGLLRKNEREEVERVFKEHFDMNLVVVDARKRFLEKLRGVTDPEKKRKIIGEEFIRVFEEEAKKHDVEFLVQGTIYSDVIESAASGKTTAKIKSHHNVGGLPEKMNLKLVEPLRDLFKDEVRKVGKYLGIPDRIINRHPFPGPGLAVRVLGEVTEEKLEILREADYIFIETLRKHDYYDKVWQAFAVLLPIKSVGVKGDARAYEYVVALRAVNSVEGMTADWSRIPHDILDEAARRITREVKGVGRVVYDITSKPPATIEWE”, the entry is “not soluble”; as for “MIPSQISFNTLPVNATYASETTVDTQKFSDILYSAGCSLKDMAYLSRCLASIHPTLAKNIYETENLSDQKLLHIDCRSTNEIKINIFFGQQREGLIEINSDTVIFSILSSLIDSAISKFQHQIPVNGSVNRELLYEDYTD”, “not soluble”; as for “MAHHHHHHMATAADYVGKNCPYCGAIDSIETDEARGEAACVNCATVVAMGLEENVATRFEKDATYADVDRGGNVGWDPENGGAIGRATARNAGLTREEAAAAAAGLLRHPNAAASVTSAGPFGDTAKYAKTRLHPRMSAQLEVFFRLSRRHDEAILRDAIALAKHFVGFRRERGMRVEHQTEVAAASVMLAAEHLGQPIPLSEMRVLDGTLKDVESRRQEILDATNLGEEMAQMTKQYAPNLIHYYVRLLQLPLICYEMPCLALFRAIRQCESKPDPGASELAVFVEAEKVVMAVLLARTESRLQWPNKPPPPADPSAEPSRAILYSSFASRAHLQPARVEKLMRVAERSVPLIQPEFERLMQTPEFAVAAVHTMGEAVVSMTAKTEDTKSYAPVKSDPIPTSAPSAPNIARGNRKRSRSRSTTPQVPPSSASQER”, “not soluble”.
